Columns and labels:
[1] = biological target: T1, RSV Pre-F protein (pre-fusion conformation of the F protein of RSV A2 strain) (RSV A2 strain, UniProt P03420 26-513); experiment: SPR (Biacore X100), TRN1021 captured on anti-human IgG (Fc), Pre-F as analyte at 2.5-40 µg/mL
T1 construct: Recombinant trimeric protein; also called pre-fusion F protein; antigen Pre-F protein

[2] = biological target: T1, RSV Pre-F protein (pre-fusion …); experiment: ELISA, RSV Pre-F coated on the plate, TRN1021 in 3-fold dilutions, anti-human IgG-HRP, OD450

T1 sequence (P03420 26-513): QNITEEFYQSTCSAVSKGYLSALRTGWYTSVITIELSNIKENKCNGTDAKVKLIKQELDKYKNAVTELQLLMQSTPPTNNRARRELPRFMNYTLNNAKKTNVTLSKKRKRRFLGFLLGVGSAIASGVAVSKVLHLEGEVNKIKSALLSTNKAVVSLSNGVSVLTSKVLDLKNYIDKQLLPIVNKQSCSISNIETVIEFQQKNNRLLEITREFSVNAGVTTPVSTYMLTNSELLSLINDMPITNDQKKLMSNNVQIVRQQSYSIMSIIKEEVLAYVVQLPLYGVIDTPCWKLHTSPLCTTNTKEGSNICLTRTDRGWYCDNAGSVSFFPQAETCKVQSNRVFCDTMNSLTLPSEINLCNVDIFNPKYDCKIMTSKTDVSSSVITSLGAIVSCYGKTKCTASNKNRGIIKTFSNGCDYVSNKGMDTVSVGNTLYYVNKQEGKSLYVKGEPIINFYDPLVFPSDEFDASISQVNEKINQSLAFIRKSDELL

B1: fully human anti-RSV monoclonal antibody TRN1021 (antibody, V domains shown)
VH: QVQLVQSGAEVKKPGESLKISCQGSGYSFNNYYIGWVRQMPGKGLEWMVIIYPGDSDTKYSPSFQGQVTVSADRSINTAYLQWSSLRASDTAVYYCVRMDTVTTGAGVGFNWFFDLWGRGTLVTVSS
VL: EIVLTQSPATLSVSPGERATLSCRASQSVTSYLAWYQQKPGQAPRLLIYGASSRATGVPARFSGSGSETEFTLTISSLQSEDFAVYYCQQYNDWPAITFGQGTRLENK
notes: It was expressed in HEK293 cells as a whole human antibody, purified on Protein A, detected with anti-human IgG and captured through anti-human IgG (Fc); also called fully human anti-RSV-F protein monoclonal antibody TRN1021
In the case of B1, the Kd [1] is reported as roughly 1 nM and the “EC50 (read off the curve)” value [2] is reported as roughly 8 ng/mL.
